Data as given in paper PMC5779224, “Autoinhibition of ankyrin-B/G membrane target bindings by intrinsically disordered segments from the tail regions” (eLife, 2017).
Values belong to the binder of their own block, whether it stands above or below them.

What was measured:
Conditions in all cases: both partners purified
[1] = target: T1, AnkB_MBD (AnkB ANK repeats only, aa 28–827) (human, UniProt Q01484-2 28-827); assay: ITC; VP-ITC MicroCal, 25 °C; proteins in 50 mM Tris-HCl pH 7.8, 1 mM DTT, 1 mM EDTA with 100 mM or 500 mM NaCl as required; who was titrated is not told
T1 construct: ankyrin-B (AnkB), human 220 kDa isoform, residues 28-827: the 24 ANK repeats (MBD), no linker; numbers count on: human 220 kDa AnkB NM_020977.3; Poor quality in 100 mM NaCl buffer; also called AnkB 28–827; source: E. coli BL21 (DE3), purified (Ni2+-NTA, size exclusion)
T1 sequence (looked up): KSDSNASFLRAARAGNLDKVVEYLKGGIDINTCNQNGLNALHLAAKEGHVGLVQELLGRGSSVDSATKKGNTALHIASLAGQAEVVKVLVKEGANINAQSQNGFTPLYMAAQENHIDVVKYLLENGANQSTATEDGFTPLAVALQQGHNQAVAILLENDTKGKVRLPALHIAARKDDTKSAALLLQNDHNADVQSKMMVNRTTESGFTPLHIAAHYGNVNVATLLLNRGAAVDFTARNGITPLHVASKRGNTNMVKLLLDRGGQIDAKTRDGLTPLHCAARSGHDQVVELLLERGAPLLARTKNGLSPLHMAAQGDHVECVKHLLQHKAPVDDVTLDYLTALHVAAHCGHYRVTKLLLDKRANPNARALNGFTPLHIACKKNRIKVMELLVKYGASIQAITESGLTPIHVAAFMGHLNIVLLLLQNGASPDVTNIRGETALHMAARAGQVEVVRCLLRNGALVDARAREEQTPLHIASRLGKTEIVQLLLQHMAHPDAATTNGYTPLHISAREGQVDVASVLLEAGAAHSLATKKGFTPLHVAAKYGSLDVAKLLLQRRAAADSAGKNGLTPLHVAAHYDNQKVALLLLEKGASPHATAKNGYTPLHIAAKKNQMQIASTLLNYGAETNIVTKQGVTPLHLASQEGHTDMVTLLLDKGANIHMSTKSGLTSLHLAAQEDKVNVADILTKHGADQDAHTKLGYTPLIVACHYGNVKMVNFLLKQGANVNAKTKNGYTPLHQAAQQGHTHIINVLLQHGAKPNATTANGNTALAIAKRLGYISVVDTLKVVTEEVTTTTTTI

[2] = target: T2, AnkG 38–855 (AnkG MBD-AI-c protein; MBD + partial AI-c) (rat, UniProt O70511-1 38-855); assay: as above
T2 construct: numbers count on: rat AnkG NM_001033984.1 (MBD-UPA); also called AnkG WT; source: E. coli BL21 (DE3), purified (Ni2+-NTA, size exclusion)
T2 sequence (looked up): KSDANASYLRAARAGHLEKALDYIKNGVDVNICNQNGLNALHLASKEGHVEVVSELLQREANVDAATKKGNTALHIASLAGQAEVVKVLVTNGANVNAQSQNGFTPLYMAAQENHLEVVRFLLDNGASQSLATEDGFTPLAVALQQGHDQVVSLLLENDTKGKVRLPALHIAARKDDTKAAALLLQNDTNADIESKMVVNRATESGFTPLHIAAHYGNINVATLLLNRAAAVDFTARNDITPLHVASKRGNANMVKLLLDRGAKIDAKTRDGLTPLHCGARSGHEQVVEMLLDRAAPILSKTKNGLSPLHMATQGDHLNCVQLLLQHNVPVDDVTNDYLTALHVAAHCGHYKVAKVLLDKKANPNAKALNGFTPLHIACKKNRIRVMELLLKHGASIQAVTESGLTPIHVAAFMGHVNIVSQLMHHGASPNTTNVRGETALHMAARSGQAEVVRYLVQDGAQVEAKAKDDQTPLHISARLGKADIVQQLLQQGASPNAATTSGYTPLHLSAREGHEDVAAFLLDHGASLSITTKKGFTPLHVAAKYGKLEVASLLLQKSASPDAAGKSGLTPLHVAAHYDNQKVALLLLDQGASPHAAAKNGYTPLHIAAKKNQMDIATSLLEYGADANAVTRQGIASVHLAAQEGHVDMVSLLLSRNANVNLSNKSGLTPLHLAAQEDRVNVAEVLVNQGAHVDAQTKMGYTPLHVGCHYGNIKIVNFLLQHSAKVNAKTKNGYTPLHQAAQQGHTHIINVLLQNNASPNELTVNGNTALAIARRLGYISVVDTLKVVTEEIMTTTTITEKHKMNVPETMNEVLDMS

[3] = target: T1, AnkB_MBD (AnkB ANK repeats only, aa …); assay: fluorescence polarisation; PerkinElmer LS-55 fluorimeter with automated polarizer, 25 °C; one-site binding model
[4] = target: T3, AnkB_R13-24 (C-terminal 12 ANK repeats of AnkB) (human, UniProt Q01484-2 430-827); assay: crystal structure; one natural chain AnkB 430-873; the linker folds back on the repeats of the same chain; crystals grown at 16 °C
T3 construct: numbers count on: human 220 kDa AnkB NM_020977.3; also called AnkB C-terminal 12 repeats; source: E. coli BL21 (DE3), purified (Ni2+-NTA, size exclusion)
T3 sequence (looked up): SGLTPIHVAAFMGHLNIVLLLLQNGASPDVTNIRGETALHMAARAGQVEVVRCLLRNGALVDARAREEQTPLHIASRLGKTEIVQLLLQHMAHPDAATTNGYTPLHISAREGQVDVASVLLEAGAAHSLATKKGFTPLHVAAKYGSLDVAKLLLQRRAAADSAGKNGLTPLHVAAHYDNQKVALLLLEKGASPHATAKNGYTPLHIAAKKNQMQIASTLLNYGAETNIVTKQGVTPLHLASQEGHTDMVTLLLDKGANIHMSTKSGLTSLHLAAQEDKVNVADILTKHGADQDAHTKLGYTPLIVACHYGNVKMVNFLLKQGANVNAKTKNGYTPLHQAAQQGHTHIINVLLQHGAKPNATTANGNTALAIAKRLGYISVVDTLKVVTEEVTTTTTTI

[5] = target: T4, AnkG 38–903 (MBD + AI-c + AI-b) (rat, UniProt O70511-1 38-903); assay: ITC; VP-ITC MicroCal, 25 °C; proteins in 50 mM Tris-HCl pH 7.8, 1 mM DTT, 1 mM EDTA with 100 mM or 500 mM NaCl as required; who was titrated is not told
T4 construct: numbers count on: rat AnkG NM_001033984.1 (MBD-UPA); also called extended AnkG MBD; source: E. coli BL21 (DE3), purified (Ni2+-NTA, size exclusion)
T4 sequence (looked up): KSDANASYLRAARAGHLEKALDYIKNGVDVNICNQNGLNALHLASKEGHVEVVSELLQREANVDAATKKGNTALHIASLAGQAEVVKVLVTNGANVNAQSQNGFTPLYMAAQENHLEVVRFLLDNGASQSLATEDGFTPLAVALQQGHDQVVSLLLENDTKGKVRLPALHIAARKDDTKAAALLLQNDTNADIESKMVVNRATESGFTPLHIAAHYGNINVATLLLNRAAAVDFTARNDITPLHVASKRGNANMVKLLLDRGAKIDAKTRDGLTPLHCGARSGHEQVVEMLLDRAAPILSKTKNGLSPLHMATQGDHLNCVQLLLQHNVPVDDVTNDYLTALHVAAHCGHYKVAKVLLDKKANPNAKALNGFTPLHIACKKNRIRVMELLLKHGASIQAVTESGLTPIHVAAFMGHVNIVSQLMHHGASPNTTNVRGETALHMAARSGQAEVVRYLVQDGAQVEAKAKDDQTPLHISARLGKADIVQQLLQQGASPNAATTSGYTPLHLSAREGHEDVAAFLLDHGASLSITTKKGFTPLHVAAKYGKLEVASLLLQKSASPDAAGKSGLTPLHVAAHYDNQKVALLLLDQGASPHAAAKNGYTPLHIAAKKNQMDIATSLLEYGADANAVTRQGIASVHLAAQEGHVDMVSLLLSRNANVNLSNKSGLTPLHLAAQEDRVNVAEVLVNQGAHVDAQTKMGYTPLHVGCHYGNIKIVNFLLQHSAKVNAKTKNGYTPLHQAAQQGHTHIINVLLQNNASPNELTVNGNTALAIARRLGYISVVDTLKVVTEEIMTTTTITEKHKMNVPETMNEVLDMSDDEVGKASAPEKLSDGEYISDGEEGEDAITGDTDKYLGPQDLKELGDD

[6] = target: T5, AnkB 28–847 (MBD + partial AI-c) (human, UniProt Q01484-2 28-847); assay: as above
T5 construct: ankyrin-B (AnkB), human 220 kDa isoform, residues 28-847: MBD and a short 20-residue linker; numbers count on: human 220 kDa AnkB NM_020977.3; also called extended MBD with a short 20-residue linker; source: E. coli BL21 (DE3), purified (Ni2+-NTA, size exclusion)
T5 sequence (looked up): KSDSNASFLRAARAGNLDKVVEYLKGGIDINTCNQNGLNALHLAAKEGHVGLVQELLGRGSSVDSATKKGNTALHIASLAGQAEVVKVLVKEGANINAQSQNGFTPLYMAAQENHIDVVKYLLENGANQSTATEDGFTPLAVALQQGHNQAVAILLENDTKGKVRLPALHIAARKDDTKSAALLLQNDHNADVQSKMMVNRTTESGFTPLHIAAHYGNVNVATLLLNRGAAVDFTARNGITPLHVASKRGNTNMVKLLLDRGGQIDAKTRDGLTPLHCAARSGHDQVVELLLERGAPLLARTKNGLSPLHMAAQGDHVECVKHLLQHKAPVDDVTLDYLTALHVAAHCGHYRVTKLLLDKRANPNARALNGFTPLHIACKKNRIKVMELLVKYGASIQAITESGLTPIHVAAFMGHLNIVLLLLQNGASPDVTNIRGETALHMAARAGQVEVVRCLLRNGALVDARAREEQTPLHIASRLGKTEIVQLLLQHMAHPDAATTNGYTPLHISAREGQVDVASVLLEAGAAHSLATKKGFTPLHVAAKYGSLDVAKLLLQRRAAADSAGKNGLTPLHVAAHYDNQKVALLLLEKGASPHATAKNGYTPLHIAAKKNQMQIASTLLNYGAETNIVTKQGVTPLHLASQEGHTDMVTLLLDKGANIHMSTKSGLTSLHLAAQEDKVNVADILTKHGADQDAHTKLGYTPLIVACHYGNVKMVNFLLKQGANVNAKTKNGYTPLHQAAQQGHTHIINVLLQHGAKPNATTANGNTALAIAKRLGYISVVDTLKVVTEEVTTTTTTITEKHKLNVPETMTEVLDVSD

B1: AnkB_AI-c Leu843Gln (domain or fragment, human, UniProt Q01484-2 828-852, looked up)
chain: TEKHKLNVPETMTEVQDVSDEEGDD
notes: numbers count on: human 220 kDa AnkB NM_020977.3; source: E. coli BL21 (DE3), purified (Ni2+-NTA, size exclusion)
binding result [1]: binds

B2: AnkB_AI-c Met839Gln (domain or fragment, human, UniProt Q01484-2 828-852, looked up)
chain: TEKHKLNVPETQTEVLDVSDEEGDD
notes: as for B1
binding result [1]: binds

B4: AnkB_AI-a peptide (aa 1623–1635) (peptide, UniProt Q01484-2 1623-1635, looked up)
peptide: HPPIVSEEDISVG
notes: ankyrin-B (AnkB), human 220 kDa isoform, 13-residue AI-a segment of the C-terminal tail, residues 1623-1635; numbers count on: human 220 kDa AnkB NM_020977.3; The text says a peptide encompassing the AI-a segment, so it may be longer than 1623-1635; The fluorescent label of the polarisation assay is not described here (protocol of Wang et al., 2014)
Kd [3]: ~7.3 µM

Continued, values first:

binding result [2]: binds
B3: AnkG linker ΔAI-c (aa 861–920) (domain or fragment, rat, UniProt O70511-1 861-920, looked up)
chain: KASAPEKLSDGEYISDGEEGEDAITGDTDKYLGPQDLKELGDDSLPAEGYVGFSLGARSA
notes: ankyrin-G (AnkG), rat, linker residues 861-920, lacking AI-c; numbers count on: rat AnkG NM_001033984.1 (MBD-UPA); also called AnkG 861–920; shorter version of the linker; source: E. coli BL21 (DE3), purified (Ni2+-NTA, size exclusion)

binding result [4]: binds
B5: AnkB 46-residue linker after the ANK repeats (aa 828–873, holds AI-c), as crystallised (domain or fragment, human, UniProt Q01484-2 828-873, looked up)
chain: TEKHKLNVPETMTEVLDVSDEEGDDTMTGDGGEYLRPEDLKELGDD
notes: Thr828 to Asp847 defined in the map; numbers count on: human 220 kDa AnkB NM_020977.3; Contiguous with m23 on one natural chain; also called folded back linker; source: E. coli BL21 (DE3), purified (Ni2+-NTA, size exclusion)

binding result [5]: binds
binding result [6]: binds
binding result [2]: binds
B6: E-cadherin (aa 734–884) (domain or fragment)
chain: not shown
notes: source: E. coli BL21 (DE3), purified (Ni2+-NTA, size exclusion)
